In patent US9339557B2, “Photosensitizer-metal nanoparticle complex and composition containing the complex for photodynamic therapy or diagnosis” (NATIONAL CANCER CENTER, priority 2009, dated 2016):

What was measured:
Assay type in all cases: cell-based, human
BT20 cells = assay: Cell viability after photodynamic therapy (MTT), cell line BT20; conditions: 5 μM equivalent of photosensitizer, 15 hours, +PDT laser 670 nm, 40 mW/cm^2, 10 J/cm^2, MTT after 24 hours
Description: 9,000 BT20 cells were seeded in each well of 96-well plates. The next day, the photosensitizer-polypeptide conjugate prepared in Preparation Example 2 and the photosensitizer-metal nanoparticle complex prepared in Preparation Example 2 were diluted with a cell culture medium, thereby preparing an MMP2 probe (MMP2P) solution and a photosensitizer-metal nanoparticle complex (MMP2P-GNR) solution, which have a final concentration corresponding to 5 μM equivalent weight of the photosensitizer. Each solution was added at 200 μl per well to some wells, and the plate was maintained at 37° C. for 15 hours. Meanwhile, for the control group, the same volume of a fresh culture medium in which the photosensitizer was not included was added. Afterwards, the cells were washed twice with a cell culture medium, and for a photodynamic therapy (PDT) group, photodynamic therapy was performed using laser at 670 nm under conditions including a light dose density of 40 mW/cm^2, and a light dose of 10 J/cm^2. After 24 hours, cell viability was measured by MTT analysis.

HT1080 cells = assay: Cell viability after photodynamic therapy (MTT), cell line HT1080; conditions: 5 μM equivalent of photosensitizer, 15 hours, +PDT laser 670 nm, 40 mW/cm^2, 10 J/cm^2, MTT after 24 hours
Description: For in vitro phototoxicity tests 9,000 HT1080 cells were seeded in each well of 96-well plates. The next day, the photosensitizer-polypeptide conjugate (MMP2P) prepared in Preparation Example 2 and the photosensitizer-metal nanoparticle complex (MMP2P-GNR) prepared in Preparation Example 3 were diluted with a cell culture medium, respectively, thereby preparing an MMP2 probe (MMP2P) solution and a photosensitizer-metal nanoparticle complex (MMP2P-GNR) solution, each of which has a final concentration corresponding to 5 μM equivalent weight of the photosensitizer. Each solution was added at 200 μl per well to some wells, and the plate was maintained at 37° C. for 15 hours. Meanwhile, for the control group, the same volume of a fresh culture medium in which the photosensitizer is not included was added to the other wells. Afterwards, the cells were washed twice with a cell culture medium, and for a photodynamic therapy (PDT) group, photodynamic therapy was carried out using laser at 670 nm under conditions including a dose density of 40 mW/cm^2 and a dose of 10 J/cm^2. After 24 hours, cell viability was measured by MTT analysis.

[1] = tested on: HT1080 cells overexpressing MMP2; assay: Fluorescence activation of photosensitizer-metal nanoparticle complex, confocal microscopy; conditions: HT1080 (MMP2 overexpressing) compared with BT20 (MMP2 underexpressing); 5 μM equivalent of photosensitizer, 15 hours, 37° C.; Ex. 405 nm, Em. 646-753 nm
Description: HT1080 cells (human fibrosarcoma cell line) overexpressing MMP2 and BT20 cells (human mammary adenocarcinoma cell line) underexpressing MMP2 (see Bremer C. et al., Nature Medicine 7(6) 743-748, 2001) were obtained from ATCC (Manassas, Va.). MMP2-positive HT1080 (90,000 cells) and MMP2-negative BT20 cells (90,000 cells) in culture media were seeded into each wells of LabTek II Chambered Coverglass. Afterwards, the photosensitizer-metal nanoparticle complex solution prepared in Preparation Example 2 was diluted with a culture medium to have 5 μM equivalent weight of the photosensitizer, and added at 600 μl per well. The cells were incubated in an incubator at 37° C. for 15 hours. After the culture medium including the complex was removed, and the cells were washed three times with a fresh culture medium, fluorescence was observed using a confocal microscope (Ex. 405 nm, Em. 646-753 nm).

MMP2P-GNR (CGGPLGVRGK)
cell viability (BT20 cells): 63% | cell viability (HT1080 cells): 16% | fluorescence in cells [1]: much stronger fluorescence
